According to publication PMC6435465:

Tests used:
[1] = biological target: YabJ from Staphylococcus aureus Mu50 (SAV0497), native recombinant (Staphylococcus aureus Mu50); test: crystal structure; 1.75 Å, space group P2(1), six molecules per asymmetric unit; crystals from 25% PEG3350, 100 mM Tris/HCl pH 8.5, 293 K; interfaces calculated with PISA
[2] = biological target: YabJ from Staphylococcus aureus Mu50 (SAV0497), native recombinant (Staphylococcus aureus Mu50); test: SDS/PAGE; 12% polyacrylamide gel, samples treated with 1% SDS and 5% 2-mercaptoethanol at 100°C for 5 min; trimer band at 50 kDa, monomer band at 16 kDa
[3] = biological target: YabJ from Staphylococcus aureus Mu50 (SAV0497), native recombinant (Staphylococcus aureus Mu50); test: SEC; size-exclusion chromatography of native and chemically treated SAYabJ; excess HOCl, DTT and H2O2 removed by dialysis beforehand; Superdex 75 (10/300 GL), 50 mM Tris/HCl pH 7.5, 200 mM NaCl named for the purification
[4] = biological target: chlorinated and reduced SAYabJ (HOCl-treated, then DTT-reduced YabJ from S. aureus Mu50) (Staphylococcus aureus Mu50); test: SDS/PAGE; 12% polyacrylamide gel, samples treated with 1% SDS and 5% 2-mercaptoethanol at 100°C for 5 min; trimer band at 50 kDa, monomer band at 16 kDa

Substance	stoichiometry N [1]	stoichiometry N [2]	stoichiometry N [3]	stoichiometry N [4]
YabJ from Staphylococcus aureus Mu50 (SAV0497), native recombinant (natural protein)	3	3	3	–
chlorinated and reduced SAYabJ (HOCl-treated, then DTT-reduced YabJ from S. aureus Mu50) (natural protein)	–	–	–	3
